In patent US11357847B2, “Modified HSV gD protein and vaccine containing same” (KM Biologics Co., Ltd., priority 2017, dated 2022):
Numbering of substitutions follows the chain as printed. Names and notes keep the numbering of the source.

B1: gD1-315v3-55V: Table 12: glycochain D, F, T cell epitope peptide and V231W (protein)
chain: KYALADPSLKMADPNRFRGKNLPVLDQLTDPPGVKRVYHIQPSLEDPFQNASIPITVYYAVLERACRSVLLHAPSEAPQIVRGASDEARKHTYNLTIAWYRMGDNCAIPITVMEYTECPYNKSLGVCPIRTQPRWSYYDSFSAVSEDNLGFLMHAPAFETAGTYLRLVKINDWTEITQFILEHRARASCKYALPLRIPPAACLTSKAYQQGVTVDSIGMLPRFIPENQRTWALYSLKIAGWHGPKPPYTSTLLPPELSDTTNATQPELVPEDPEDSALLEDPAGTVSSQIPPNWHIPSIQDVAPHHAPAAPSNPGGPGPGIAFWVRRRAQMAPKPLRIAFWVRRRAQMAPKPLRHHHHHH
modifications: left off: small tags and cut ends
B2: gD1-315v5-55V: gD1-315 with glycochains at SC-A, SC-F, T cell epitope peptide DP5 and V231W (protein)
chain: B1 chain with R186N
modifications: left off: small tags and cut ends
B3: gD1-275v3: gD1-275 with glycochain at P50 (SC-F) (protein)
chain: KYALADPSLKMADPNRFRGKNLPVLDQLTDPPGVKRVYHIQPSLEDPFQNASIPITVYYAVLERACRSVLLHAPSEAPQIVRGASDEARKHTYNLTIAWYRMGDNCAIPITVMEYTECPYNKSLGVCPIRTQPRWSYYDSFSAVSEDNLGFLMHAPAFETAGTYLRLVKINDWTEITQFILEHRARASCKYALPLRIPPAACLTSKAYQQGVTVDSIGMLPRFIPENQRTVALYSLKIAGWHGPKPPYTSTLLPPELSDTTNATQPELVPEDPEDHHHHHH
B4: gD1-275v5: gD1-275 with glycochains at R186 (SC-A) and P50 (SC-F) (protein)
chain: B3 chain with R186N
B5: gD1-315v3V: gD1-315 with glycochain at SC-F and V231W (protein)
chain: KYALADPSLKMADPNRFRGKNLPVLDQLTDPPGVKRVYHIQPSLEDPFQNASIPITVYYAVLERACRSVLLHAPSEAPQIVRGASDEARKHTYNLTIAWYRMGDNCAIPITVMEYTECPYNKSLGVCPIRTQPRWSYYDSFSAVSEDNLGFLMHAPAFETAGTYLRLVKINDWTEITQFILEHRARASCKYALPLRIPPAACLTSKAYQQGVTVDSIGMLPRFIPENQRTWALYSLKIAGWHGPKPPYTSTLLPPELSDTTNATQPELVPEDPEDSALLEDPAGTVSSQIPPNWHIPSIQDVAPHHAPAAPSNPGHHHHHH
B6: gD1-275 (protein)
chain: KYALADPSLKMADPNRFRGKNLPVLDQLTDPPGVKRVYHIQPSLEDPFQPPSIPITVYYAVLERACRSVLLHAPSEAPQIVRGASDEARKHTYNLTIAWYRMGDNCAIPITVMEYTECPYNKSLGVCPIRTQPRWSYYDSFSAVSEDNLGFLMHAPAFETAGTYLRLVKINDWTEITQFILEHRARASCKYALPLRIPPAACLTSKAYQQGVTVDSIGMLPRFIPENQRTVALYSLKIAGWHGPKPPYTSTLLPPELSDTTNATQPELVPEDPED

Legend:
[1] = test system: HSV-2 MS strain; test: Mouse infection-prevention test of modified gD (genital herpes infection model); format: in vivo, BALB/c mice; set-up: key to Determination (vs gD1-315) / Determination# (vs gD1-315): ++: minimum effective dose based on the Significant difference test in three-fold common ratio relative to gD1-315(WT) of two or more doses stronger; +: those of one dose stronger; ±: those of an equivalent value
Procedure: Immunogenicity test of the modified gD antigen was performed using the wild-type gD antigen gD1-315 (WT) as a positive control and saline as a negative control. A predetermined amount of antigen was dissolved in saline for injection (saline) with MPLA (10 μg/mouse) and CpG (1 μg/mouse) and immunized to mice at a volume of 200 μL/mouse. BALB/c mice (5 weeks old, female) were used for the study and immunized subcutaneously in back at 2-week intervals for a total of 3 times (N=4 cases per group). Two weeks after the final immunization (third dose), blood was collected and serum was prepared for each individual. The prepared serum was serially diluted and assessed for neutralizing antibody-inducing activity against HSV-2 (50% plaque number-reducing activity).
An infection-prevention test in the preventive administration of modified gD antigen was performed using a mouse genital herpes infection model. Similar to the mouse immunogenicity test described above, mice were immunized with the number of N=10 cases per group. Depo-Provera was inoculated subcutaneously at 2 mg/mouse 6 days prior to viral inoculation to improve the multiplicity of infection upon viral inoculation 2 weeks after final immunization (third dose). 5×10^5 PFU/20 μL HSV-2 MS strain was inoculated transvaginally under anesthesia and observed for 21 days. Infection prevention ability was evaluated using survival time (survival rate) as index.
The infection model of the mouse genital herpes infection model was used to evaluate infection prevention ability of various modified gD in preventive administration. The number of animal cases in each group was set to n=10, and wild-type gD (gD1-315) was used as a positive control and saline was used as a negative control. The experiments were performed a total of four times (experiments 1-4) and four doses of 0.1 μg/mouse/time, 0.03 μg/mouse/time, 0.01 μg/mouse/time and 0.003 μg/mouse/time were set for all of the positive control, negative control, and subject modified gD antigen. Depo-Provera was inoculated subcutaneously at 2 mg/mouse 6 days prior to viral inoculation to improve the multiplicity of infection upon viral inoculation 2 weeks after final immunization (third dose). 5×10^5 PFU/20 HSV-2 MS strain was inoculated transvaginally under anesthesia and observed for 21 days. Infection prevention ability was evaluated using survival time (survival rate) as index. Mean values of those were plotted in the graph. A Significant difference test for the negative control group was performed by the Kaplan-Meier method, and those with a minimum effective dose based on the Significant difference test in three-fold common ratio relative to wild type gD of two or more doses stronger were determined to be “++”, those of one dose stronger were determined to be “+”, and those of an equivalent value were determined to be “±”.

[2] = test system: various anti-gD2 antibodies; test: Reactivity of gD variants with anti-gD2 antibodies (competitive ELISA); format: binding, human; conditions: for Relative reactivity with antibody No. 82 (gD1-315 wild-type set to 1): FIG. 13; for Reactivity with anti-gD2 antibody 1 / Reactivity with anti-gD2 antibody 5 / Reactivity with anti-gD2 antibody 13 / Reactivity with anti-gD2 antibody 72 / Reactivity with anti-gD2 antibody 75 / Reactivity with anti-gD2 antibody 78 / Reactivity with anti-gD2 antibody 82: immobilized gD variant
Source text: Each anti-gD2 monoclonal antibody and each gD variant were expressed using an Expi293 expression system.

[3] = Properties of produced gD variants (aggregates); format: physicochemical; conditions: expressed and purified variant
Source text: Four gD1-275-based variants were produced. Since these were FR3-deficient variants, V231W mutations affecting FR3 were not investigated. […] Meanwhile, eight gD1-315-based variants were produced, and none of the variants were less than the original gD1-315 in both properties and expression level.

[4] = Experiment 2, 0.003 μg/head/time
[5] = Experiment 2, 0.01 μg/head/time
[6] = Experiment 2, 0.03 μg/head/time
[7] = Experiment 1, 0.003 μg/head/time
[8] = Experiment 1, 0.01 μg/head/time
[9] = Experiment 1, 0.03 μg/head/time
[10] = Experiment 4, 0.01 μg/head/time
[11] = Experiment 4, 0.03 μg/head/time
[12] = Experiment 4, fourth dose line, 0.03 μg/head/time
[13] = Experiment 3, 0.01 μg/head/time
[14] = Experiment 3, 0.03 μg/head/time
[15] = Experiment 3, fourth dose line, 0.03 μg/head/time

Row | Molecule | Relative reactivity with antibody No. 82 (gD1-315 wild-type set to 1) [2] | Reactivity with anti-gD2 antibody 1 [2] | Reactivity with anti-gD2 antibody 5 [2] | Reactivity with anti-gD2 antibody 13 [2] | Reactivity with anti-gD2 antibody 72 [2] | Reactivity with anti-gD2 antibody 75 [2] | Reactivity with anti-gD2 antibody 78 [2] | Reactivity with anti-gD2 antibody 82 [2] | Properties of the variant (aggregates) [3] | also measured
1 | B1 | slightly reduced | + ((+): 70% or more) | − ((−): less than 30%) | + ((+): 70% or more) | ± ((±): 30% or more and less than 70%) | ± ((±): 30% or more and less than 70%) | − ((−): less than 30%) | + ((+): 70% or more) |  | Mean survival time [1, 4]: 7 days; Significant difference test (vs saline) [1, 4]: N.S.; Mean survival time [1, 5]: >16.5 days; Significant difference test (vs saline) [1, 5]: N.S.; Mean survival time [1, 6]: >22 days; Significant difference test (vs saline) [1, 6]: ** (** 0.001 = < p < 0.01); Mean survival time ([1]; Experiment 2, 0.1 μg/head/time): >22 days; Significant difference test (vs saline) ([1]; Experiment 2, 0.1 μg/head/time): *** (*** p < 0.001); Determination# (vs gD1-315) ([1]; Experiment 2, minimum effective dose relative to gD1-315(WT)): +
2 | B2 | slightly reduced | + ((+): 70% or more) | − ((−): less than 30%) | + ((+): 70% or more) | + ((+): 70% or more) | − ((−): less than 30%) | − ((−): less than 30%) | + ((+): 70% or more) |  | Mean survival time [1, 7]: 10 days; Significant difference test (vs saline) [1, 7]: ** (** 0.001 = < p < 0.01); Mean survival time [1, 8]: >21 days; Significant difference test (vs saline) [1, 8]: *** (*** p < 0.001); Mean survival time [1, 9]: >21 days; Significant difference test (vs saline) [1, 9]: *** (*** p < 0.001); Mean survival time ([1]; Experiment 1, 0.1 μg/head/time): >21 days; Significant difference test (vs saline) ([1]; Experiment 1, 0.1 μg/head/time): *** (*** p < 0.001); Determination (vs gD1-315) ([1]; Experiment 1, minimum effective dose relative to gD1-315(WT)): ++; Mean survival time [1, 10]: >21 days; Significant difference test (vs saline) [1, 10]: * (* 0.01 = < p < 0.05); Mean survival time [1, 11]: >21 days; Significant difference test (vs saline) [1, 11]: *** (*** p < 0.001); Mean survival time ([1]; Experiment 4, 0.1 μg/head/time): >21 days; Significant difference test (vs saline) ([1]; Experiment 4, 0.1 μg/head/time): *** (*** p < 0.001); Mean survival time [1, 12]: 8.5 days; Significant difference test (vs saline) [1, 12]: N.S.; Determination# (vs gD1-315) ([1]; Experiment 4, minimum effective dose relative to gD1-315(WT)): ++
3 | B3 |  | − ((−): less than 30%) | − ((−): less than 30%) | − ((−): less than 30%) | − ((−): less than 30%) | − ((−): less than 30%) | − ((−): less than 30%) | + ((+): 70% or more) | no change in properties | 
4 | B4 | substantially similar reactivity | − ((−): less than 30%) | − ((−): less than 30%) | − ((−): less than 30%) | + ((+): 70% or more) | − ((−): less than 30%) | − ((−): less than 30%) | + ((+): 70% or more) | no change in properties | 
5 | B5 |  | + ((+): 70% or more) | − ((−): less than 30%) | + ((+): 70% or more) | − ((−): less than 30%) | − ((−): less than 30%) | − ((−): less than 30%) | + ((+): 70% or more) |  | Mean survival time [1, 13]: 7 days; Significant difference test (vs saline) [1, 13]: * (* 0.01 = < p < 0.05); Mean survival time [1, 14]: >21 days; Significant difference test (vs saline) [1, 14]: *** (*** p < 0.001); Mean survival time ([1]; Experiment 3, 0.1 μg/head/time): >21 days; Significant difference test (vs saline) ([1]; Experiment 3, 0.1 μg/head/time): *** (*** p < 0.001); Mean survival time [1, 15]: 6 days; Significant difference test (vs saline) [1, 15]: N.S.; Determination# (vs gD1-315) ([1]; Experiment 3, minimum effective dose relative to gD1-315(WT)): ±
6 | B6 |  | − ((−): less than 30%) | + ((+): 70% or more) | + ((+): 70% or more) | + ((+): 70% or more) | + ((+): 70% or more) | + ((+): 70% or more) | + ((+): 70% or more) | Aggregation | 
